Measurements reported in article PMC11030525.

Tests used:
AHA1, mouse = AHA1, mouse (UniProt Q8BK64); assay: mCherry antibody affinity purification (IP) with SILAC LC-MS; conditions: E14 ESCs; AA mutant in light media, EE mutant in heavy media; representative spectrum; mCherry EE:AA = 1.08 in the same panel
FKBP4, mouse = FKBP4, mouse (UniProt P30416); assay: as above; conditions: E14 ESCs; AA mutant in light media, EE mutant in heavy media; representative spectrum; mCherry EE:AA = 1.08 in the same panel
FKBP4, mouse, sequence (P30416 whole entry): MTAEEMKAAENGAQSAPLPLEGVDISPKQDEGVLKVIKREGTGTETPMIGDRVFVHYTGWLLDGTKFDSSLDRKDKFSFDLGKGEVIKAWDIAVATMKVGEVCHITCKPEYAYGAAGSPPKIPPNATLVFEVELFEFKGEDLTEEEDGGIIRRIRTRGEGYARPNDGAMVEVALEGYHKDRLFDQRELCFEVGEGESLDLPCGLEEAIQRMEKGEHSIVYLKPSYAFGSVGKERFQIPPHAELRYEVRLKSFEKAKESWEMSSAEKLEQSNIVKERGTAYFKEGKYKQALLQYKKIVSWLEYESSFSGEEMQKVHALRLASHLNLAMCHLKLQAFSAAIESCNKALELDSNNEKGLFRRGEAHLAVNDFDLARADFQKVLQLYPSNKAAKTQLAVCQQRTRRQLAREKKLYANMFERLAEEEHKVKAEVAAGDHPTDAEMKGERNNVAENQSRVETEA

mCherry-HSP90β-Wild type, P08238 S226E; S255E, sequence (P08238 whole entry S226E/S255E): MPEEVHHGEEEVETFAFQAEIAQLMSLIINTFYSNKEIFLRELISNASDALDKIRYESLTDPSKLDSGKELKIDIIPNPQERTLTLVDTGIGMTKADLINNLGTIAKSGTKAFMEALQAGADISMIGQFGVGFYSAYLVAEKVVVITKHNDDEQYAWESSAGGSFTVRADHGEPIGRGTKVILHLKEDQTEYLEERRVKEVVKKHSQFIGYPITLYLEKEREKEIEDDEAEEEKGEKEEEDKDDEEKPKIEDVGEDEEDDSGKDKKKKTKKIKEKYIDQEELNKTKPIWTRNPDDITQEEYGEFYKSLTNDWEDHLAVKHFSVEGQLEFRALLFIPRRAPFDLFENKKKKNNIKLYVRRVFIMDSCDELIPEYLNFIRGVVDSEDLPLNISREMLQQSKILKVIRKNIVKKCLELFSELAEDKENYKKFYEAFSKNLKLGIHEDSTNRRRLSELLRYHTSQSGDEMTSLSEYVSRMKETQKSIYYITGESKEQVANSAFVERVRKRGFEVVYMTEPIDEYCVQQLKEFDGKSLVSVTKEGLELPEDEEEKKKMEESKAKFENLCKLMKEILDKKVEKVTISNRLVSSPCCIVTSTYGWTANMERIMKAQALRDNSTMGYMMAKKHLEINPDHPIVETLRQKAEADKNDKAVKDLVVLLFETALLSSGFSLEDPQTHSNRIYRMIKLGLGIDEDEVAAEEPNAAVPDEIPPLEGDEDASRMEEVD
AHA1, mouse, sequence (Q8BK64 whole entry): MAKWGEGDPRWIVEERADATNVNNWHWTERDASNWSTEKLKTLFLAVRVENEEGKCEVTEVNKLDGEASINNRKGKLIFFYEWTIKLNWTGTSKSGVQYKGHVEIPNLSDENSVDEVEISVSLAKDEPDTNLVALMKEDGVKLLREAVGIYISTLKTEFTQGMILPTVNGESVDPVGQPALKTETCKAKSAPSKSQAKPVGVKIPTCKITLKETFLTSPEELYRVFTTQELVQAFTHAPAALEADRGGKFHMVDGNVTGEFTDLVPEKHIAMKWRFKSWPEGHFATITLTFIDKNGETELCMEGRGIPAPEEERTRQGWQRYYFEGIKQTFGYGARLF

other: SILAC ratio EE:AA (AHA1, mouse): 1.69 | other: SILAC ratio EE:AA (FKBP4, mouse): 1.74
Substance: mCherry-HSP90β-Wild type, P08238 S226E; S255E
